Each block holds one binder with its values, some of them ahead of it.
How the values were obtained:
[1] = molecular target: T1, human CD3 on primary human T cells (human, UniProt P07766 23-207; P04234 22-171); experiment: flow cytometry on primary human T cells, 37 C
T1 construct: whole, on cells; On cells the whole CD3/TCR complex is present

[2] = molecular target: T2, cyno CD3 (delta/epsilon heterodimer) (cyno, UniProt Q95LI5 22-117; Q95LI8 22-105); experiment: SPR 37 C; CD3 delta/epsilon on anti-His chip, bispecific (transient expi293) analyte
T2 construct: also called cyCD3
T2 sequence (Q95LI5 22-117, stated change not applied, chain 1 of 2): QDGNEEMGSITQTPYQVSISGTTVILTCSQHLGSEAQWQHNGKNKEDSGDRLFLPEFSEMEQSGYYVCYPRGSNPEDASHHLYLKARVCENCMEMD
T2 sequence (Q95LI8 22-105, stated change not applied, chain 2 of 2): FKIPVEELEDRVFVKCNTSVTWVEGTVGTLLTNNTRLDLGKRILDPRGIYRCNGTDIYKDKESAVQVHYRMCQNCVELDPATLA

[3] = molecular target: T3, human CD3 (delta/epsilon heterodimer) (human, UniProt P07766 23-126; P04234 22-105); experiment: as above
T3 construct: captured on an anti-His chip, so it carries a His tag; also called huCD3
T3 sequence (P07766 23-126, stated change not applied, chain 1 of 2): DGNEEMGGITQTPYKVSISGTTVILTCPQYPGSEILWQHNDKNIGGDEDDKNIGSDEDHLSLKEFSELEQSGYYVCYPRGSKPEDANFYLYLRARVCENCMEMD
T3 sequence (P04234 22-105, stated change not applied, chain 2 of 2): as the sequence (Q95LI8 22-105, stated change not applied, chain 2 of 2) above, with V5I, K15N, V20I, T32S, N33D, N34I, A64T, N74S, L83V counted along it

[4] = molecular target: T2, cyno CD3 (delta/epsilon heterodimer); experiment: SPR 37 C; CD3 delta/epsilon on anti-His chip, bispecific analyte
[5] = molecular target: T3, human CD3 (delta/epsilon heterodimer); experiment: as above
[6] = molecular target: T4, cynomolgus CD3 on cells from cynomolgus PBMCs (cynomolgus, UniProt Q95LI5 22-198; Q95LI8 22-171); experiment: flow cytometry on cyno PBMC, 37 C
T4 construct: whole, on cells; also called Cyno PBMC
T4 sequence (Q95LI5 22-198, chain 1 of 2): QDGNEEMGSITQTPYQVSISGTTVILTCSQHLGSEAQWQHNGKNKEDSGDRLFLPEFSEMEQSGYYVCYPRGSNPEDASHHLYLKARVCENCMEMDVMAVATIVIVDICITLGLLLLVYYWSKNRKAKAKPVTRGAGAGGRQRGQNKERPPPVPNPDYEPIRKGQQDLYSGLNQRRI
T4 sequence (Q95LI8 22-171, chain 2 of 2): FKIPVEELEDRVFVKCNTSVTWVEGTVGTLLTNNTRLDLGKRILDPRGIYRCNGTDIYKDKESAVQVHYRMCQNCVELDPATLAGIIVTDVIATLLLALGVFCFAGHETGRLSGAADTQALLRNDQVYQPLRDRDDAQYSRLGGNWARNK

[7] = molecular target: T2, cyno CD3 (delta/epsilon heterodimer); experiment: SPR 37 C; CD3 delta/epsilon on anti-His chip, bispecific (stable CHO) analyte
[8] = molecular target: T3, human CD3 (delta/epsilon heterodimer); experiment: as above
[9] = molecular target: T5, human B7-H4 extracellular domain (human, UniProt Q7Z7D3 29-258); experiment: competition ELISA on coated huB7-H4 ECD; competitor biotinylated 0052 (by series, not given); second value of the fourth IC50 column
T5 construct: For SPR it says only human B7-H4 ECD; also called Hu B7-H4 ECD; huB7-H4 ECD
T5 sequence: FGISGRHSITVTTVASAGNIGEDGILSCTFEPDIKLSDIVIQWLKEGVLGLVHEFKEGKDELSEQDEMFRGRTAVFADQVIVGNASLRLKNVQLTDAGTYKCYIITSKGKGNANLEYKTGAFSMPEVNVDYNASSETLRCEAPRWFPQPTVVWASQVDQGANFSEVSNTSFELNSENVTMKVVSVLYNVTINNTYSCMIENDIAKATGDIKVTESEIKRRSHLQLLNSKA

[10] = molecular target: T5, human B7-H4 extracellular domain; experiment: SPR Biacore 8K 25 C; mAb captured on anti-human Fc, huB7-H4 ECD analyte, 1:1 fit;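 also: antibodies tested as IgG1, running buffer HBS-EP+ at pH 7.4, rate constants and affinity from a 1:1 Langmuir model fit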
[11] = molecular target: T5, human B7-H4 extracellular domain; experiment: competition ELISA on coated huB7-H4 ECD; competitor biotinylated 0052 (by series, not given); first of the four IC50 [nM] columns; competitor not given

T1 sequence (P07766 23-207, chain 1 of 2): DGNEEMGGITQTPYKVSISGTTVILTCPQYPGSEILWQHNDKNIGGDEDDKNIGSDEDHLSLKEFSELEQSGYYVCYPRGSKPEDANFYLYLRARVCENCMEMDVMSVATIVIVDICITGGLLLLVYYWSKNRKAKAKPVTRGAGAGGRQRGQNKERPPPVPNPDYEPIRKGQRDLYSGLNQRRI
T1 sequence (P04234 22-171, chain 2 of 2): as the sequence (Q95LI8 22-171, chain 2 of 2) above, with V5I, K15N, V20I, T32S, N33D, N34I, A64T, N74S, L83V, R141H counted along it

EC50 [1]: 64 nM | Kd [2]: 70.8 nM | koff [2]: 0.0317 s⁻¹ | kon [2]: 449000 M⁻¹ s⁻¹ | Kd [3]: 62.5 nM | koff [3]: 0.0309 s⁻¹ | kon [3]: 499000 M⁻¹ s⁻¹ | Kd [4]: 66.8 nM | koff [4]: ~0.0338 s⁻¹ | kon [4]: 506000 M⁻¹ s⁻¹ | Kd [5]: 63.5 nM | koff [5]: ~0.0337 s⁻¹ | kon [5]: 531000 M⁻¹ s⁻¹ | EC50 [6]: 46 nM | Kd [7]: 58.8 nM | koff [7]: 0.0305 s⁻¹ | kon [7]: 519000 M⁻¹ s⁻¹ | Kd [8]: 49.8 nM | koff [8]: 0.0317 s⁻¹ | kon [8]: 638000 M⁻¹ s⁻¹
B1: B7-H4xCD3 bispecific antibody 1167 (bispecific antibody)
heavy 1: EVQLLESGGGLVQPGGSLRLSCAASGFTFSSYAMSWVRQAPGKGLEWVSAISGGGGSTYYADSVKGRFTISRDNSKNTLYLQMNSLRAEDTAVYYCARDIQWYGESTLFDYWGQGTLVTVSSASTKGPSVFPLAPCSRSTSESTAALGCLVKDYFPEPVTVSWNSGALTSGVHTFPAVLQSSGLYSLSSVVTVPSSNFGTQTYTCNVDHKPSNTKVDKTVERKCEVECPECPAPPVAGPSVFLFPPKPKDTLMISRTPEVTCVVVAVSHEDPEVQFNWYVDGVEVHNAKTKPREEQFNSTFRVVSVLTVVHQDWLNGKEYKCKVSNKGLPSSIEKTISKTKGQPREPQVYTLPPSREEMTKNQVSLTCEVKGFYPSDIAVEWESNGQPENNYKTTPPMLDSDGSFFLYSKLTVDKSRWQQGNVFSCSVMHEALHNHYTQKSLSLSPGK
light 1: DIQMTQSPSSLSASVGDRVTITCRASQSTRSHLAWYQQKPGKAPKLLIYKASSLEGGVPSRFSGSGSGTDFTLTISSLQPEDFATYYCQQYGSYSRTFGQGTKVEIKRTVAAPSVFIFPPSDEQLKSGTASVVCLLNNFYPREAKVQWKVDNALQSGNSQESVTEQDSKDSTYSLSSTLTLSKADYEKHKVYACEVTHQGLSSPVTKSFNRGEC
heavy 2: EVQLVESGGGLVQPGGSLRLSCAASGFTFSDYYMTWVRQAPGKGLEWVAFIRNQARGYTSDHNPSVKGRFTISRDNAKNSLYLQMNSLRAEDTAVYYCARDRPSYYVLDYWGQGTTVTVSSASTKGPSVFPLAPCSRSTSESTAALGCLVKDYFPEPVTVSWNSGALTSGVHTFPAVLQSSGLYSLSSVVTVPSSNFGTQTYTCNVDHKPSNTKVDKTVERKCRVRCPRCPAPPVAGPSVFLFPPKPKDTLMISRTPEVTCVVVAVSHEDPEVQFNWYVDGVEVHNAKTKPREEQFNSTFRVVSVLTVVHQDWLNGKEYKCKVSNKGLPSSIEKTISKTKGQPREPQVYTLPPSREEMTKNQVSLTCLVKGFYPSDIAVEWESNGQPENNYKTTPPMLDSDGSFFLYSRLTVDKSRWQQGNVFSCSVMHEALHNHYTQKSLSLSPGK
light 2: DIQMTQSPSSLSASVGDRVTITCTSSQSLFNVRSQKNYLAWYQQKPGKAPKLLIYWASTRESGVPSRFSGSGSGTDFTLTISSLQPEDFATYYCKQSYDLFTFGGGTKVEIKRTVAAPSVFIFPPSDEQLKSGTASVVCLLNNFYPREAKVQWKVDNALQSGNSQESVTEQDSKDSTYSLSSTLTLSKADYEKHKVYACEVTHQGLSSPVTKSFNRGEC
notes: Chains 1-2: B7-H4 arm; chains 3-4: CD3 arm; Full-length chains; IgG2 dA D265A EEE/RRR

IC50 [9]: 1 nM | Kd [10]: 3.79 nM | koff [10]: 0.000635 s⁻¹ | kon [10]: 168000 M⁻¹ s⁻¹ | IC50 [11]: 4.8 nM
B2: B7-H4 antibody 0047 (antibody, human IgG1, kappa, V domains shown)
VH: QVQLQQWGAGLLKPSETLPLTCAVYGGSFSGYYWNWIRQPPGKGLEWIGEINHSGSATYNPSLKSRVTISVDTSKNHFSLKLSSVTAADTAVYFCARGLYNWNVDHWGQGTLVTVSS
VL: DIQMTQSPSSLSASVGDRVTITCRASQGIRNDLGWYQQKPGKAPKRLIYAASSLQSGVPSRFSGSGSGTEFTLTISSLQPEDFATYYCLQHNSYPRTFGGGTKVEIKR
notes: also called 7H7
